Read-outs that look alike come from different tables or passages of the source.
Tests used:
FAM19A5 mutant M6 [1] = target: T1, FAM19A5 mutant M6 (human); assay: ELISA on phage-displayed FAM19A5 mutants; y axis without label
T1 construct: FAM19A5 with region 6 replaced by the consensus of FAM19A1-4; The entry already carries the changes
T1 chain: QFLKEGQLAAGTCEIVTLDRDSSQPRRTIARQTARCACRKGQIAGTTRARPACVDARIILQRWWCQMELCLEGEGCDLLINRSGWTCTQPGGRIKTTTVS

FAM19A5 mutant M8 [2] = target: T2, FAM19A5 mutant M8 (human); assay: as above
T2 construct: FAM19A5 with region 8 replaced by the consensus of FAM19A1-4; The entry already carries the changes
T2 chain: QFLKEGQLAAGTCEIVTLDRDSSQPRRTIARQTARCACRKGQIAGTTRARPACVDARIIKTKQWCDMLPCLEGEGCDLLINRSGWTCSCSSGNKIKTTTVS

FAM19A5-M1 [3] = target: T3, FAM19A5-M1; assay: ELISA on phage-displayed FAM19A5 mutants; y axis without label; no blank in the panel
T3 construct: also called FAM19A5 mutant M1
T3 FAM19A5 mutant: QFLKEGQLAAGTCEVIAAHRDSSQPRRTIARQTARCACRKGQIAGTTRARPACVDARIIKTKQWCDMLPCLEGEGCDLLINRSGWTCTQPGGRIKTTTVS

FAM19A5-M4 [4] = target: T4, FAM19A5-M4; assay: as above
T4 construct: also called FAM19A5 mutant M4
T4 FAM19A5 mutant: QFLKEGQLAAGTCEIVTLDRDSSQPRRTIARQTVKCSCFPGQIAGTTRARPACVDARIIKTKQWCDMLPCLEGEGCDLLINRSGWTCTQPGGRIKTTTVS

FAM19A5-M2 [5] = target: T5, FAM19A5-M2; assay: as above
T5 construct: also called FAM19A5 mutant M2
T5 FAM19A5 mutant: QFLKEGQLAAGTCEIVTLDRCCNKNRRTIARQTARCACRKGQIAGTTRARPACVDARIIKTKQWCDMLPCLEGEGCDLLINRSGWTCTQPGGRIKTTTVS

FAM19A5 mutant M7 [6] = target: T6, FAM19A5 mutant M7 (human); assay: as above
T6 construct: FAM19A5 with region 7 replaced by the consensus of FAM19A1-4; The entry already carries the changes
T6 chain: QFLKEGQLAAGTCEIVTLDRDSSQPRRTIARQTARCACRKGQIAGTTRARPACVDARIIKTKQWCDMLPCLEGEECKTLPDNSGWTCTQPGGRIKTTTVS

FAM19A5-M3 [7] = target: T7, FAM19A5-M3; assay: as above
T7 construct: also called FAM19A5 mutant M3
T7 FAM19A5 mutant: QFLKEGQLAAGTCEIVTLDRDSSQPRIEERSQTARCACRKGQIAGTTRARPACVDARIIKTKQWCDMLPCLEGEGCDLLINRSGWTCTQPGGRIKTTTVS

FAM19A5-M5 [8] = target: T8, FAM19A5-M5; assay: as above
T8 construct: also called FAM19A5 mutant M5
T8 FAM19A5 mutant: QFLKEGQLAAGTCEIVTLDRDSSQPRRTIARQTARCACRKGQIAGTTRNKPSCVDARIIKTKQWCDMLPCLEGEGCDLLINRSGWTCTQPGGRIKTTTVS

FAM19A5 mutant M6 [9] = target: T1, FAM19A5 mutant M6; assay: ELISA on phage-displayed FAM19A5 mutants; y axis without label
FAM19A5 mutant M8 [10] = target: T2, FAM19A5 mutant M8; assay: as above
FAM19A5 mutant M7 [11] = target: T6, FAM19A5 mutant M7; assay: as above
FAM19A5-M1 [12] = target: T3, FAM19A5-M1; assay: ELISA on phage-displayed FAM19A5 mutants; y axis without label; no blank in the panel, lowest bars about 0.05
FAM19A5-M4 [13] = target: T4, FAM19A5-M4; assay: as above
FAM19A5-M2 [14] = target: T5, FAM19A5-M2; assay: as above
FAM19A5-M3 [15] = target: T7, FAM19A5-M3; assay: as above
FAM19A5-M5 [16] = target: T8, FAM19A5-M5; assay: as above

Binder | binding result (FAM19A5 mutant M6 [1]) | binding result (FAM19A5 mutant M8 [2]) | binding result (FAM19A5-M1 [3]) | binding result (FAM19A5-M4 [4]) | binding result (FAM19A5-M2 [5]) | binding result (FAM19A5 mutant M7 [6]) | binding result (FAM19A5-M3 [7]) | binding result (FAM19A5-M5 [8]) | binding result (FAM19A5 mutant M6 [9]) | binding result (FAM19A5 mutant M8 [10]) | binding result (FAM19A5 mutant M7 [11]) | binding result (FAM19A5-M1 [12]) | binding result (FAM19A5-M4 [13]) | binding result (FAM19A5-M2 [14]) | binding result (FAM19A5-M3 [15]) | binding result (FAM19A5-M5 [16])
Anti-FAM19A5 (13B4) (antibody, V domains shown, Only variable domains are tied to the name) VH: QVQLQESGPGLVKPSGTLSLNCAVSGGSISSSNWWSWVRQPPGKGLEWIGEIYHGGTTNYNPSLKGRVTMSVDKTKNQFSLRLSSVTAVDTAVYYCARWQLVGGLDVWGQGTTVTVSS VL: SYELTQPLSVSVSPGQTASITCSGDKLGNVYASWYQQKPGQSPTLVIYQDNKRPSGIPERFSGSNSGKTATLTISGTQALDEADYYCQAWDSSTAVFGGGTKLTVL | no binding | no binding | binds | binds | binds | binds | binds | binds |  |  |  |  |  |  |  | 
Anti-FAM19A5 (P2-A03) (antibody, V domains shown, Only variable domains are tied to the name) VH: QSVEESGGRLVTPGTPLTLTCTVSGFSLNNYDMSWVRQAPGKGLEYIGFMDTDGSAYYATWAKGRFTISRTSTTVDLKMTSPTTEDTATYFCARRGSSYYGGIDIWGPGTPVTVSL VL: ELDLTQTPASVSEPVGGTVTIKCQASQSIGGNLAWYQQKPGQPPKLLIYRASTLASGVPSRFKGSGSGTDFTLTISDLECADAATYYCQSPAYDPAAYVGNAFGGGTELEIL |  |  |  |  |  |  |  |  | no binding | no binding | no binding | binds | binds | binds | binds | binds

— US20250236663A1 (NEURACLE SCIENCE, published 2025)
